In patent US20220340655A1 (OPSIDIO, published 2022):

Target: human stem cell factor isoform SCF248 (human, UniProt P21583 26-273)
Experiment: flow cytometry on S1/S14 hSCF248 cells; printed as BC50 (50% maximal binding)

human stem cell factor isoform SCF248, sequence (P21583 26-189): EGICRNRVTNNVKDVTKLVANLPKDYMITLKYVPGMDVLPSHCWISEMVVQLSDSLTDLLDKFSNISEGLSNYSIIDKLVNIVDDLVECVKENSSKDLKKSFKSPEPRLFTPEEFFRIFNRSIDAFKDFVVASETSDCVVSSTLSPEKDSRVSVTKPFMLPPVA

B1: 5H10 VH3/VK3 (antibody, human IgG4, V domains shown)
VH: QVQLVQSGAEVKKPGSSVKVSCKSSGYAFSSYWMNWVRQRPGQGLEWIGQIYPGDGDTHYNGKFKGKATLTADKSTSTAYMELSSLRSEDTAVYFCSSSNWVGSYWGQGTLVTVSS
VL: DVVMTQSPLSLPVTLGQPASISCKSSQSLLESDGKTYLNWLQQRPGQSPRRLIYLVSRLDSGVPDRFSGSGSGTDFTLKISRVEAEDVGVYYCWQGTHLPQTFGGGTKVEIK
notes: Humanized; only variable regions are tied to the name
Question: Which EC50 does the source give for B1 here?
Answer: Its EC50 is 0.9 mg/L.
